Biological target: MPERp (HIV-1 (HXBc2 isolate))
Assay: cross-linking; peptides (10 µg) in solution incubated with 20 µM BS3 for 1 h at 37°C, TCA precipitation, Tricine SDS-PAGE; detection by Western blot with MAb2F5 or by NBD fluorescence in the gel

MPERp (peptide), sequence (P03375 656-683): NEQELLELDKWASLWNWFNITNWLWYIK

Work on MPERp (peptide) yielded a stoichiometry N of 2.
